Data reported in patent US20160058881A1, “PRODRUGS WITH PROLONGED ACTION” (INDIANA UNIVERSITY RESEARCH AND TECHNOLOGY CORPORATION, priority 2013, published 2016).
Where two headings read alike, the source gives them in different places. Positions of bridges follow the written chain, without caps; N, C: chain ends. Non-standard residues stand in square brackets, D forms with d. Residues, ends and D or L forms follow the SMILES beside them. Groups on a side chain read outwards from the residue. No end group written: not given here. *: point of attachment. Docosanoyl = CCCCCCCCCCCCCCCCCCCCCC(=O)*; Phe(4-NH2) = Nc1ccc(C[C@H](N)C(=O)O)cc1; PhLac = O=C(O)[C@@H](O)Cc1ccccc1; Aib = CC(C)(N)C(=O)O; Sar = CNCC(=O)O

Legend:
[1] = tested on: diet induced obesity (DIO) mice; assay: In vivo effects in DIO mice, single injection (Example 4); design: species or system mice (strain: C57B16); details: single s.c. injection, lower dose (10 nmol/kg), Day 0-5
Procedure: The Peptide D prodrug described in Example 3 was tested for its in vivo effects in diet induced obesity (DIO) mice (strain: C57B16). Nine groups of eight mice (with an initial average body weight of 50 g) were subcutaneously injected with vehicle only or 10 nmol/kg or 50 nmol/kg of a Peptide D acylated prodrug of Example 3, the parent peptide (i.e., Peptide D lacking an acylated dipeptide prodrug moiety), Peptide D with an acylated lysine residue linked directly the 4-amino phenylalanine at position 10, or the following peptide: YAib[…](γEγE-C16)[…]ib[…] (SEQ ID NO: 3082) (Peptide F). The mice were 6 months old and had been on a high fat diet for approximately 2 months. Body weight was monitored for a week following injection and was measured on Day 0, 1, 2, and 5, wherein Day 0 was the day of injection (FIG. 2).

[2] = tested on: diet induced obesity (DIO) mice; assay: In vivo effects of acyl chain length variants in DIO mice, single injection (Example 5); design: species or system mice (strain: C57B16); details: single s.c. injection, 10 nmol/kg, Day 0-7
Procedure: The Peptide D variants described above were also tested for their in vivo effects in diet induced obesity (DIO) mice (strain: C57B16). Nine groups of eight mice (with an initial average body weight of 50 g) were subcutaneously injected with vehicle only, or 10 nmol/kg of a Peptide D with C18 acylation via the dipeptide prodrug moiety (as described in Example 3), the parent peptide (i.e., Peptide D lacking acylation and lacking a dipeptide prodrug moiety), Peptide D with a C18 acyl group linked directly to the 4-amino phenylalanine at position 10, a Peptide D with C20 acylation via the dipeptide prodrug moiety, Peptide D with a C20 acyl group linked directly to the 4-amino phenylalanine at position 10, a Peptide D with C22 acylation via the dipeptide prodrug moiety, and Peptide D with a C22 acyl group linked directly to the 4-amino phenylalanine at position 10. The mice were 6 months old and had been on a high fat diet for approximately 2 months. Body weight was monitored for a week following injection and was measured on Day 0, 1, 2, 5, and 7 wherein Day 0 was the day of injection (FIG. 3A, 3B).

[3] = assay type: in vitro ADME
Procedure: The peptides described above were incubated in PBS buffer or serum at 37° C. for up to 8 days. Samples were collected at different time points for PBS and plasma and half-life was determined. […] The peptides described above were incubated in PBS buffer or serum at 37° C. for up to 8 days. Samples were collected at different time points for PBS and plasma and half-life was determined. […] The shorter half-life seen when the acylated dipeptide was linked to […] might be due to a conformational change that facilitates cleavage when bound to plasma or alternatively to reduced detection of the acylated form when bound to plasma.

[4] = assay type: physicochemical; details: buffer
Procedure: Preliminary analyses were performed with these crude peptides for an approximation of their relative conversion rates in Phosphate Buffered Saline (PBS) buffer (pH, 7.2) using high performance liquid chromatography (HPLC) and MALDI analysis. The crude peptide samples were dissolved in the PBS buffer at a concentration of 1 mg/mL. […] Aliquots of 100 μL were drawn out at various time intervals, cooled to room temperature and analyzed by HPLC. […] The peptides described above were incubated in PBS buffer or serum at 37° C. for up to 8 days. Samples were collected at different time points for PBS and plasma and half-life was determined. […] The peptides described above were incubated in PBS buffer or serum at 37° C. for up to 8 days. Samples were collected at different time points for PBS and plasma and half-life was determined. […] The shorter half-life seen when the acylated dipeptide was linked to […] might be due to a conformational change that facilitates cleavage when bound to plasma or alternatively to reduced detection of the acylated form when bound to plasma.

GLP-1 receptor [5] = target: T1, GLP-1 receptor (Homo sapiens, UniProt P43220); assay: cell-based or functional assay
glucagon receptor [6] = target: glucagon receptor (UniProt P47871); assay: cell-based or functional assay
GLP-1 receptor [7] = target: T1, GLP-1 receptor; assay: cell-based or functional assay; remark: listed apart in the source
glucagon receptor [8] = target: glucagon receptor (UniProt P47871); assay: cell-based or functional assay; remark: listed apart in the source
glucagon receptor [9] = target: T2, glucagon receptor (UniProt P47871 26-477, limits assumed); assay: cell-based or functional assay
GLP-1 receptor [10] = target: T3, GLP-1 receptor (UniProt P43220 24-463, limits assumed); assay: cell-based or functional assay
glucagon receptor [11] = target: T2, glucagon receptor; assay: cell-based or functional assay; remark: listed apart in the source
GLP-1 receptor [12] = target: T3, GLP-1 receptor; assay: cell-based or functional assay; remark: listed apart in the source
GIP receptor = target: T4, GIP receptor (UniProt P48546 22-466); assay: cell-based or functional assay
T4 sequence (looked up): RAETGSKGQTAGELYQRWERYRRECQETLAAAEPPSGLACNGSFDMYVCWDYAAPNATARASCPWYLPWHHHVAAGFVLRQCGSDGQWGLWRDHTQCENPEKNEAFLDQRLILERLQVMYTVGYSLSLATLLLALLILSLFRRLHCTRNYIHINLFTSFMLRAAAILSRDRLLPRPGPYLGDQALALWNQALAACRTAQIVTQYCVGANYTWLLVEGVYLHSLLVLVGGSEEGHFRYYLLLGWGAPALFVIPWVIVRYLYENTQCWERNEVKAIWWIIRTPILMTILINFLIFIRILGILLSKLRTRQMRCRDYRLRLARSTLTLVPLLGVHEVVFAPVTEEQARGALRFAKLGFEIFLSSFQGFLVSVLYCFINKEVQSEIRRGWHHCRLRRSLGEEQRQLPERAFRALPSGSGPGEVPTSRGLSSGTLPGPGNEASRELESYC

GLP-1 receptor [13] = target: T3, GLP-1 receptor; assay: cell-based or functional assay; remark: listed apart in the source

Sequence of glucagon receptor (UniProt P47871) (P47871 26-477 limits assumed): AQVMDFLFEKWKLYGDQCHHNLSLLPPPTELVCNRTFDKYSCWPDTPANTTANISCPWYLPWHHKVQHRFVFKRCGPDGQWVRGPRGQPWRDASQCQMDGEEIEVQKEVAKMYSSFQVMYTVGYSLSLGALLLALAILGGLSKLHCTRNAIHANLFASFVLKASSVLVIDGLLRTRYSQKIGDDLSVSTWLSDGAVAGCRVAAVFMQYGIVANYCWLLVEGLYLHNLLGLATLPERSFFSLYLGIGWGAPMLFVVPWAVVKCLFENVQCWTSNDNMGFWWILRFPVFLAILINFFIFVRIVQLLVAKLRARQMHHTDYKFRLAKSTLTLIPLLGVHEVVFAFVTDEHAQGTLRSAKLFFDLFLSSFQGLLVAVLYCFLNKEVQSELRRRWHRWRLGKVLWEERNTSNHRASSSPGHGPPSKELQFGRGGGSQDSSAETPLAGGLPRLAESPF
T2 sequence (P47871 26-477 limits assumed): as above
T1 sequence (P43220 24-463 limits assumed): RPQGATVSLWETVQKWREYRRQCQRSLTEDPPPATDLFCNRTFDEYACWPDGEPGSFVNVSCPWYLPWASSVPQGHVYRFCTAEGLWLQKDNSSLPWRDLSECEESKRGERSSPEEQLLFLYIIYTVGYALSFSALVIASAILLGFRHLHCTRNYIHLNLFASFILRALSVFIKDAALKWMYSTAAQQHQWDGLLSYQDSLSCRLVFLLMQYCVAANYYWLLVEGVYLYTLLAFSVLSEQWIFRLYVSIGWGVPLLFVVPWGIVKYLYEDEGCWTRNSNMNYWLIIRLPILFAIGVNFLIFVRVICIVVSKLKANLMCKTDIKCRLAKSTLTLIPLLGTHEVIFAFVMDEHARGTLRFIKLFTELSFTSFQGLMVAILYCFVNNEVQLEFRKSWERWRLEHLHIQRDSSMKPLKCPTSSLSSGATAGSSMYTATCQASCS

## CC[C@H](C)[C@H](NC(=O)[C@H](CO)NC(=O)[C@H](Cc1ccc(N)cc1)NC(=O)[C@H](CC(=O)O)NC(=O)[C@H](CO)NC(=O)[C@@H](NC(=O)[C@H](Cc1ccccc1)NC(=O)[C@@H](NC(=O)CNC(=O)[C@H](CCC(=O)O)NC(=O)C(C)(C)NC(=O)[C@@H](N)Cc1ccccc1)[C@@H](C)O)[C@@H](C)O)C(=O)N[C@@H](Cc1ccc(O)cc1)C(=O)N[C@@H](CC(C)C)C(=O)N[C@@H](CC(=O)O)C(=O)N[C@@H](CCCCN)C(=O)N[C@@H](CCC(N)=O)C(=O)N[C@@H](C)C(=O)N[C@@H](C)C(=O)NC(C)(C)C(=O)N[C@@H](CCC(=O)O)C(=O)N[C@@H](Cc1ccccc1)C(=O)N[C@H](C(=O)N[C@@H](CC(N)=O)C(=O)N[C@@H](Cc1c[nH]c2ccccc12)C(=O)N[C@@H](CC(C)C)C(=O)N[C@@H](CC(C)C)C(=O)N[C@@H](C)C(=O)NCC(=O)NCC(=O)N1CCC[C@H]1C(=O)N[C@@H](CO)C(=O)N[C@@H](CO)C(=O)NCC(=O)N[C@@H](C)C(=O)N1CCC[C@H]1C(=O)N1CCC[C@H]1C(=O)N1CCC[C@H]1C(=O)N[C@@H](CO)C(N)=O)C(C)C [Peptide D] (H-F[Aib]EGTFTSD[Phe(4-NH2)]SIYLDKQAA[Aib]EFVNWLLAGGPSSGAPPPS-NH2; N-terminus and C-terminus assumed)
[1]
  Body weight: decline in weight through day 2 before weight began to increase slightly
[2]
  Body weight: caused the most weight loss
[3]
  half-life: ~24 h
[4]
  half-life: ~24 h

## CCCCCCCCCCCCCCCCCCCCCC(=O)NCCCC[C@@H](N)C(=O)N(C)CC(=O)NCCCC[C@H](NC(=O)[C@H](CO)NC(=O)[C@@H]1CCCN1C(=O)[C@@H]1CCCN1C(=O)[C@@H]1CCCN1C(=O)[C@H](C)NC(=O)CNC(=O)[C@H](CO)NC(=O)[C@H](CO)NC(=O)[C@@H]1CCCN1C(=O)CNC(=O)CNC(=O)[C@H](C)NC(=O)[C@H](CC(C)C)NC(=O)[C@H](CC(C)C)NC(=O)[C@H](Cc1c[nH]c2ccccc12)NC(=O)[C@H](CC(N)=O)NC(=O)[C@@H](NC(=O)[C@H](Cc1ccccc1)NC(=O)[C@H](CCC(=O)O)NC(=O)C(C)(C)NC(=O)[C@H](C)NC(=O)[C@H](C)NC(=O)[C@H](CCC(N)=O)NC(=O)[C@H](CCCCN)NC(=O)[C@H](CC(=O)O)NC(=O)[C@H](CC(C)C)NC(=O)[C@H](Cc1ccc(O)cc1)NC(=O)[C@@H](NC(=O)[C@H](CO)NC(=O)[C@H](Cc1ccc(O)cc1)NC(=O)[C@H](CC(=O)O)NC(=O)[C@H](CO)NC(=O)[C@@H](NC(=O)[C@H](Cc1ccccc1)NC(=O)[C@@H](NC(=O)CNC(=O)[C@H](CCC(=O)O)NC(=O)C(C)(C)NC(=O)[C@@H](N)Cc1ccc(O)cc1)[C@@H](C)O)[C@@H](C)O)[C@@H](C)CC)C(C)C)C(=O)O [Peptide H]
[3]
  half-life: ~120 h
[4]
  half-life: ~120 h

## D9, K12E16(Lactam) glucagon(6-39) Cex peptide (Table 1 peptide 4)
GLP-1 receptor [5]
  GLP-1 EC50: 119 nM
Glucagon receptor [6]
  Glu IC50: 828 nM
GLP-1 receptor [7]
  GLP-1 EC50: 18 nM
Glucagon receptor [8]
  Glucagon IC50: 828 nM

## E9, E16K20(lactam) glucagon(6-39) Cex peptide (Table 1 peptide 3)
Glucagon receptor [6]
  Glu IC50: 42 nM
GLP-1 receptor [7]
  GLP-1 EC50: 36 nM
Glucagon receptor [8]
  Glucagon IC50: 42 nM

## E9, K12E16(lactam) glucagon(6-39) Cex peptide (Table 1 peptide 2)
GLP-1 receptor [5]
  GLP-1 EC50: 63 nM
Glucagon receptor [6]
  Glu IC50: 2010 nM
Glucagon receptor [8]
  Glucagon IC50: 2010 nM

## [PLA6, E9, K12E16(Lactam)] glucagon(6-39) Cex peptide (Table 1 peptide 5)
Glucagon receptor [6]
  Glu IC50: 72 nM
GLP-1 receptor [7]
  GLP-1 EC50: 6 nM
Glucagon receptor [8]
  Glucagon IC50: 72 nM

## [PhLac]TSDYSKYLDERRAKDFVQWLMDT (lactam 11-15) [[PLA6, D9, E16K20(lactam), D28]G(6-29) (Table 2 peptide 1)]
Glucagon receptor [9]
  Glucagon IC50: 10 to 30 nM
GLP-1 receptor [10]
  GLP-1 EC50: 4 nM
Glucagon receptor [11]
  Glucagon IC50: 6 nM

## Y[Aib]EGTFTSDYSK([Sar-dK-C22 acyl])YLDKQAA[Aib]EFVNWLLAGGPSSGAPPPS-NH2 [Peptide F of Example 8 with C22-acylated (d)Lysine-sarcosine dipeptide on Lysine at position 12]
GLP-1 receptor [12]
  EC50-GLP, relative activity to GLP-1 standard: 17.4%
GIP receptor
  EC50-GIP, relative activity to GIP standard: 30.2%

## Y[Aib]EGTFTSDYSIYLDKQAA[Aib]EFVNWLLAGGPSSGAPPPSK([Sar-dK-Docosanoyl])-NH2 [Peptide H with C22-acylated (d)Lysine-sarcosine dipeptide on Lysine at position 40]
GLP-1 receptor [12]
  EC50-GLP, relative activity to GLP-1 standard: 37.1%
GIP receptor
  EC50-GIP, relative activity to GIP standard: 81.6%

## Y[Aib]EGTFTSDYSIYLDK([Sar-dK-C22 acyl])QAA[Aib]EFVNWLLAGGPSSGAPPPS-NH2 [Peptide G with C22-acylated (d)Lysine-sarcosine dipeptide on Lysine at position 16]
GLP-1 receptor [12]
  EC50-GLP, relative activity to GLP-1 standard: 24.7%
GIP receptor
  EC50-GIP, relative activity to GIP standard: 58.5%

## [PhLac]TSDYSKYLDERRAQDFVQWLMDT (lactam 7-11; not fully specified) [[PLA6, D9, K12E16(Lactam), D28]G(6-29) (Table 2 peptide 2)]
GLP-1 receptor [13]
  GLP-1 EC50: 177 nM
Glucagon receptor [9]
  Glucagon IC50: 63 nM
GLP-1 receptor [10]
  GLP-1 EC50: 21 nM
Glucagon receptor [11]
  Glucagon IC50: 13 nM
